Data taken from the supplement of paper PMC10065799, “High-throughput profiling of sequence recognition by tyrosine kinases and SH2 domains using bacterial peptide display” (eLife, 2023).

How the values were obtained:
SHP2-C SH2 = test: SH2 binding enrichment of the phosphorylated peptide, bacterial display (enrichment ratio); higher = better substrate or ligand; peptides without Tyr show the background
c-Src SH2 = test: as above
Grb2 SH2 = Grb2 SH2 (UniProt P62993); test: as above
Jak2 = Jak2 (UniProt O60674); test: phosphorylation enrichment, bacterial display (enrichment ratio); higher = better substrate or ligand; peptides without Tyr show the background
Chain of Jak2 (O60674 whole entry, looked up): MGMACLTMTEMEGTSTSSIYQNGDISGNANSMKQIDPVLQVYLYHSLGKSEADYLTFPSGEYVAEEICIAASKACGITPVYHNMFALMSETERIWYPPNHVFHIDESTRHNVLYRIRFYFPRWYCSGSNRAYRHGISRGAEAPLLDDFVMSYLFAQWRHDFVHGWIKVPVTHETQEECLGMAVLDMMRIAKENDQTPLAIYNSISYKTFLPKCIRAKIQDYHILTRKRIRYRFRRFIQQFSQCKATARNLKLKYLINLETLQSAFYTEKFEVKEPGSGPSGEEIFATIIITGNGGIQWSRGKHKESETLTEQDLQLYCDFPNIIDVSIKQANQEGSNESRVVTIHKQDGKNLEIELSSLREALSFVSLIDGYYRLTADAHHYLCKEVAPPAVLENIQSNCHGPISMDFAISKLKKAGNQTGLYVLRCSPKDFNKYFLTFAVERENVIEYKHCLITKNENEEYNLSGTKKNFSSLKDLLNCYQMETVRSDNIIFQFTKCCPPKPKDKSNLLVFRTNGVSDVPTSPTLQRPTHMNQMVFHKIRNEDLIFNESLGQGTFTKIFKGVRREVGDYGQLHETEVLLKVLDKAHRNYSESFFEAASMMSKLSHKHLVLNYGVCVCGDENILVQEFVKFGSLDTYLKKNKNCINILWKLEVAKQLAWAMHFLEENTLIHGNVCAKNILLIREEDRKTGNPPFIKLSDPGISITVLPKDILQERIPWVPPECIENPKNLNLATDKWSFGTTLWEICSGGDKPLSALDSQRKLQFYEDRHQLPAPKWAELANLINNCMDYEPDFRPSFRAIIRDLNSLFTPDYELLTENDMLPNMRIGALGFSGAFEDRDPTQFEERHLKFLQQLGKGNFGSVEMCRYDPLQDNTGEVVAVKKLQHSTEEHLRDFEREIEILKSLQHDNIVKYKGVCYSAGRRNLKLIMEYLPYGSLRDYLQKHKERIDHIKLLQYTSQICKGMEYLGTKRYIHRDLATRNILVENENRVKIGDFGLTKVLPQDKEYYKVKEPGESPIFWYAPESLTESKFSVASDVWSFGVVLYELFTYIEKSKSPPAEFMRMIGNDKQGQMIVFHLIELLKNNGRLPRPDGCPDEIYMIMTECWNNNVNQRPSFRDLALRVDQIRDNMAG

MERTK = MERTK (UniProt Q12866); test: as above
Chain of MERTK (Q12866 whole entry, looked up): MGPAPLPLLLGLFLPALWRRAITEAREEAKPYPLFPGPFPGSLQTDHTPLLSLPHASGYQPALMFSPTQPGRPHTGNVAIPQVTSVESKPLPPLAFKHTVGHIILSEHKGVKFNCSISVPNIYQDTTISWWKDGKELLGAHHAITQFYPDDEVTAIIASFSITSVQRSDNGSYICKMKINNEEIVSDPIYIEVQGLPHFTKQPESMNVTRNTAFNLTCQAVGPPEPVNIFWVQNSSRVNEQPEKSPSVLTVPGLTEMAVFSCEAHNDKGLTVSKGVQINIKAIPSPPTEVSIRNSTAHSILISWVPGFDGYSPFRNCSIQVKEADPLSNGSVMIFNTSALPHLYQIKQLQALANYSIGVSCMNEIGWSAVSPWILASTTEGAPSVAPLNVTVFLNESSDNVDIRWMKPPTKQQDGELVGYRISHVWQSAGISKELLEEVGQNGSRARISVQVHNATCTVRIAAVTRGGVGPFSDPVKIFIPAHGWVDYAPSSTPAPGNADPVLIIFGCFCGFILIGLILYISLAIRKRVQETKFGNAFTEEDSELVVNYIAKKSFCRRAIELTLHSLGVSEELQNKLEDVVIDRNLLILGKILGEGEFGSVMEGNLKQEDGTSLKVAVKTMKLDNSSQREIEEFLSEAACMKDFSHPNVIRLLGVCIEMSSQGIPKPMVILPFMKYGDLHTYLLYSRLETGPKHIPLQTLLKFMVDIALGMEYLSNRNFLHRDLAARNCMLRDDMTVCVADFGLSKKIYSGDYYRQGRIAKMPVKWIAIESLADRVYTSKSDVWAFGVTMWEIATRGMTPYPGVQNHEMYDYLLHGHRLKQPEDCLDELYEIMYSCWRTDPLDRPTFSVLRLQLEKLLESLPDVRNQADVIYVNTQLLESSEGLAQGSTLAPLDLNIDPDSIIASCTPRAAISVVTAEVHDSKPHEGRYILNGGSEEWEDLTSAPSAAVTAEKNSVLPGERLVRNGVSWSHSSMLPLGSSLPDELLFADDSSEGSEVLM

FGFR1 = FGFR1 (UniProt P11362); test: as above
Hck = Hck (UniProt P08631); test: as above
Chain of Hck (P08631 whole entry, looked up): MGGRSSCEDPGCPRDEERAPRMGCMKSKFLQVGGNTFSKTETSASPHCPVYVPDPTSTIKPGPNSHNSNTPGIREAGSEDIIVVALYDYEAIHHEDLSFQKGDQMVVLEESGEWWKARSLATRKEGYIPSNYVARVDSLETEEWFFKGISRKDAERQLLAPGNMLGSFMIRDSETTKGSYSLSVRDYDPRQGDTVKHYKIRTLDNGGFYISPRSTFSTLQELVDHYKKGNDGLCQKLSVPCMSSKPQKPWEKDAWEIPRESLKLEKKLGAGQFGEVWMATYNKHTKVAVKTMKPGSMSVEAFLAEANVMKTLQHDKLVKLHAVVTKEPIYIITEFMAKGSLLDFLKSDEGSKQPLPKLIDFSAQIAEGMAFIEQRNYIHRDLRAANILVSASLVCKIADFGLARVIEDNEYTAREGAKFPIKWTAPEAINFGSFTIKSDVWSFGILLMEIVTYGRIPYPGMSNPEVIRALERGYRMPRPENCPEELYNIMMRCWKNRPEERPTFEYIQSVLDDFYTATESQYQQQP

EPHB1 = EPHB1 (UniProt P54762); test: as above
AncSZ = test: as above
Fyn = Fyn (UniProt P06241); test: as above
Chain of Fyn (P06241 whole entry, looked up): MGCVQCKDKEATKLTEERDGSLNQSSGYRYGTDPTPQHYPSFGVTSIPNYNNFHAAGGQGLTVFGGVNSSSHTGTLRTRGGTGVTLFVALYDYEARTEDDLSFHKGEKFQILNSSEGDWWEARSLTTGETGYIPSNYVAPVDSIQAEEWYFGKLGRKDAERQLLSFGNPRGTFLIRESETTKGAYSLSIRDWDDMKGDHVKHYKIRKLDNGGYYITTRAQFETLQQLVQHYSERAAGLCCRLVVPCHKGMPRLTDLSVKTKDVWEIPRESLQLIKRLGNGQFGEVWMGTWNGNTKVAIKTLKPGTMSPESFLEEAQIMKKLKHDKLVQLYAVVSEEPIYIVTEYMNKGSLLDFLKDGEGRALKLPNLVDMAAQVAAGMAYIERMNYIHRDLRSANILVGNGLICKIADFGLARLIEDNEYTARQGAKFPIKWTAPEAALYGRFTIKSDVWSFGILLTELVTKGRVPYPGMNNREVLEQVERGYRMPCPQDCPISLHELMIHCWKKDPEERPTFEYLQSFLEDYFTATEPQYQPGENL

Fes = Fes (UniProt P07332); test: as above
Chain of Fes (P07332 whole entry, looked up): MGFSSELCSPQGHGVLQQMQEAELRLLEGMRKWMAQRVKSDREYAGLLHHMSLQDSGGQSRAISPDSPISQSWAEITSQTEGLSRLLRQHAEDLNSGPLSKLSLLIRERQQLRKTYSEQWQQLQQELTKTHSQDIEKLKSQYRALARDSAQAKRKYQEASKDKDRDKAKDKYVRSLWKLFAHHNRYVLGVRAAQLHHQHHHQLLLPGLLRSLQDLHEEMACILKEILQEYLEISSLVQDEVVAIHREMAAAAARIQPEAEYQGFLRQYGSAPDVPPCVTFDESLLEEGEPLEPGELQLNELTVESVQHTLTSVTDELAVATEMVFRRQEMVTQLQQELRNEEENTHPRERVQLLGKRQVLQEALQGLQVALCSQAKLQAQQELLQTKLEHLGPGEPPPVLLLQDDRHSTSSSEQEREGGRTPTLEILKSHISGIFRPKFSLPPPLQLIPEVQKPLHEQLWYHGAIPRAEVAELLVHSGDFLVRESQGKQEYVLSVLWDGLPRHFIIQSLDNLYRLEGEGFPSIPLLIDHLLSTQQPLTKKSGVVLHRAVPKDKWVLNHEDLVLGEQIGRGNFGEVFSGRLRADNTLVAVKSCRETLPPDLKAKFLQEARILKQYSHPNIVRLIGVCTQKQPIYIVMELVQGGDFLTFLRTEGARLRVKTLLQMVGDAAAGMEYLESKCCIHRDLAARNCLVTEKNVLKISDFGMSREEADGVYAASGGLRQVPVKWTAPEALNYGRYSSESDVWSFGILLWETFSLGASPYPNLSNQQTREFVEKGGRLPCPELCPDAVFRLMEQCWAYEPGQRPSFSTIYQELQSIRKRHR

Fer (mouse) = test: as above
EPHB2 = EPHB2 (UniProt P29323); test: as above
Chain of EPHB2 (P29323 whole entry, looked up): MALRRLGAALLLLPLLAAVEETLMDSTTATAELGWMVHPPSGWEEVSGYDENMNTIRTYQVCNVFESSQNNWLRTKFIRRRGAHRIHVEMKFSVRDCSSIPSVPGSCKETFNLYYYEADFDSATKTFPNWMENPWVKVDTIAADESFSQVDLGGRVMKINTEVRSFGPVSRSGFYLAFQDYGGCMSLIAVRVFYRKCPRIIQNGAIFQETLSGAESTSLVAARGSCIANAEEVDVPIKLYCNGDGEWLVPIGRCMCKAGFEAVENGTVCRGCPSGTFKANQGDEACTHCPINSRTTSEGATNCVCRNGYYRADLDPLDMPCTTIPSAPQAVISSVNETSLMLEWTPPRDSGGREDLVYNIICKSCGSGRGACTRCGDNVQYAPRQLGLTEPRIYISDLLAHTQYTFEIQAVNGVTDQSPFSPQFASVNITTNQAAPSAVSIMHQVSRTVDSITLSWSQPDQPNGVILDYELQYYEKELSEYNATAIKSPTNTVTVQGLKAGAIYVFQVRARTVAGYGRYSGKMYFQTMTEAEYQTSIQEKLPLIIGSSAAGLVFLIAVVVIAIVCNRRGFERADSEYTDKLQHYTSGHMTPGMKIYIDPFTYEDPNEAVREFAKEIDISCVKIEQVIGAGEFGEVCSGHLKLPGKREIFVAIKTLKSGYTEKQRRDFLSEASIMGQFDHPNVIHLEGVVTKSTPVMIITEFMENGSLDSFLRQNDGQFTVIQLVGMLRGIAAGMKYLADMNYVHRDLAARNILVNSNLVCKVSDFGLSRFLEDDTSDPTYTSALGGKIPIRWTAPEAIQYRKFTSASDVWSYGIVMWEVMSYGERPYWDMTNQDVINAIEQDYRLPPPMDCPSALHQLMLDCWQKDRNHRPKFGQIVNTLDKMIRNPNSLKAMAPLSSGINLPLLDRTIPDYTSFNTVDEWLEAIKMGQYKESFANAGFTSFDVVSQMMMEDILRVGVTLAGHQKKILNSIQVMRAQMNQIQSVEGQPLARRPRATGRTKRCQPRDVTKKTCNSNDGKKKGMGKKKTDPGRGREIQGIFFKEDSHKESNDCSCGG

FGFR3 = FGFR3 (UniProt P22607); test: as above
c-Abl (mouse) = test: as above
c-Src = test: as above
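Wherever SH2 binding enrichment of the phosphorylated peptide, bacterial display is given: peptide library displayed on the E. coli surface as eCPX fusions, selected cells deep-sequenced, score is each peptide's frequency after selection divided by its frequency in the input.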
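Wherever phosphorylation enrichment, bacterial display is given: 11-residue human phosphosite peptides and single-mutation variants displayed on the E. coli surface, counted by deep sequencing, each peptide's frequency after selection divided by its frequency in the unselected input library; frequency after pTyr selection over input frequency; kinase dosed for 20-30% of maximal phosphorylation in three min.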

Sequence | SH2 binding enrichment (SHP2-C SH2) | SH2 binding enrichment (c-Src SH2) | SH2 binding enrichment (Grb2 SH2) | phosphorylation enrichment (Jak2) | phosphorylation enrichment (MERTK) | phosphorylation enrichment (FGFR1) | phosphorylation enrichment (Hck) | phosphorylation enrichment (EPHB1) | phosphorylation enrichment (AncSZ) | phosphorylation enrichment (Fyn) | phosphorylation enrichment (Fes) | phosphorylation enrichment (Fer (mouse)) | phosphorylation enrichment (EPHB2) | phosphorylation enrichment (FGFR3) | phosphorylation enrichment (c-Abl (mouse)) | phosphorylation enrichment (c-Src)
VFFGSYSRPFG [NKAP_Y104_YF] | 1.2 | 1.76 | 1.24 | 1.12 | 0.777 | 0.522 | 0.479 | 0.396 | 1.39 | 0.382 | 0.974 | 0.419 | 0.445 | 0.65 | 1.02 | 0.584
GEVKAYGAGLL [TH_Y419] | 0.457 | 0.393 | 0.818 | 0.498 | 0.342 | 0.453 | 0.404 | 0.309 | 0.497 | 0.363 | 0.503 | 0.319 | 0.459 | 0.371 | 0.451 | 0.342
SIRFNYLLDVL [FGFR4_Y237_YF] | 1.3 | 1.1 | 1.37 | 1 | 0.387 | 0.481 | 0.485 | 0.539 | 0.94 | 0.432 | 1.14 | 0.502 | 0.518 | 0.747 | 0.706 | 0.413
TEQDPYNNIVR [MMUT_Y364] | 0.649 | 1.28 | 0.857 | 0.881 | 0.451 | 0.466 | 0.555 | 0.5 | 1.01 | 0.545 | 0.978 | 0.45 | 0.499 | 0.601 | 0.582 | 0.581
IVGRLYRLLTE [SETX_Y1978_L1976R] | 0.734 | 0.738 | 1.05 | 0.954 | 0.396 | 0.418 | 0.387 | 0.481 | 1.1 | 0.376 | 1.12 | 0.37 | 0.494 | 0.644 | 0.676 | 0.331
EMFNPYYGLFE [NEDD4L_Y679] | 0.855 | 1.06 | 1.17 | 6.66 | 6.86 | 5.41 | 7.91 | 5.74 | 2.04 | 8.62 | 1.64 | 6.32 | 5.92 | 4.84 | 2.2 | 6.95
STASGYSDVTD [DTX2_Y425] | 1.11 | 3.68 | 0.851 | 0.661 | 0.355 | 0.497 | 0.449 | 0.448 | 0.721 | 0.447 | 0.84 | 0.398 | 0.464 | 0.487 | 0.61 | 0.358
GAMGHYVLAER [HFE_Y342] | 0.91 | 2.46 | 1.18 | 0.511 | 0.452 | 0.38 | 0.44 | 0.387 | 0.643 | 0.41 | 0.659 | 0.453 | 0.403 | 0.446 | 0.505 | 0.437
SWVVPYEPPEV [TP53_Y220_V216W] | 0.639 | 1.33 | 1.05 | 0.957 | 0.39 | 0.599 | 0.542 | 0.553 | 1.44 | 0.463 | 1.23 | 0.577 | 0.631 | 0.861 | 0.851 | 0.411
KTVQDYLEKFF [MMP8_Y36_YF] | 0.719 | 0.64 | 0.953 | 0.986 | 0.514 | 0.643 | 0.502 | 0.504 | 1.14 | 0.519 | 1.28 | 0.485 | 0.602 | 0.692 | 0.874 | 0.446
MALDIYRASFF [ALK_Y1278_R1275L_YF] | 0.768 | 0.518 | 0.803 | 0.715 | 0.776 | 0.558 | 1.22 | 0.599 | 0.936 | 1.06 | 0.953 | 0.599 | 0.584 | 0.767 | 4.88 | 1.05
RLLVVYHWTQR [HBD_Y36_P37H] | 1.27 | 1.27 | 1.49 | 1.17 | 0.666 | 0.458 | 0.85 | 0.785 | 1.42 | 0.46 | 1.58 | 0.659 | 0.514 | 0.75 | 1.32 | 0.566
TSSSSYFDEPV [ARFGAP3_Y356] | 0.827 | 0.569 | 0.762 | 0.98 | 0.421 | 0.486 | 0.5 | 0.549 | 1.1 | 0.478 | 1.01 | 0.506 | 0.576 | 0.749 | 0.841 | 0.47
VDEERYDIEAK [TNNI3_Y112] | 0.647 | 0.62 | 0.852 | 1.12 | 0.439 | 0.555 | 0.724 | 0.516 | 1.13 | 0.513 | 1.24 | 0.519 | 0.708 | 0.697 | 0.752 | 0.483
ARSMEYLAEQK [MST1R_Y1198] | 0.611 | 0.384 | 0.819 | 1.08 | 0.548 | 0.471 | 0.622 | 0.488 | 0.755 | 0.585 | 0.839 | 0.403 | 0.493 | 0.622 | 0.655 | 0.474
DRLASYPEKVR [KRT13_Y118_L119P] | 0.636 | 0.511 | 0.845 | 0.403 | 0.34 | 0.403 | 0.329 | 0.323 | 0.395 | 0.35 | 0.57 | 0.329 | 0.413 | 0.413 | 0.41 | 0.331
LLVVVYKYRCY [PSEN1_Y154_L153V] | 2.37 | 0.829 | 2.16 | 0.994 | 0.474 | 1.08 | 1.08 | 2.05 | 2 | 0.703 | 3.48 | 1.25 | 1.22 | 1.22 | 1.65 | 0.662
LGGSPYPGVPV [FGFR1_Y701] | 0.874 | 0.546 | 0.873 | 0.503 | 0.4 | 0.514 | 0.481 | 0.493 | 0.591 | 0.524 | 0.881 | 0.413 | 0.615 | 0.463 | 0.675 | 0.359
SGLDSYVRSLP [TRAPPC1_Y133_R129G] | 0.74 | 0.492 | 0.799 | 0.443 | 0.402 | 0.453 | 0.438 | 0.379 | 0.618 | 0.424 | 0.651 | 0.445 | 0.581 | 0.48 | 0.426 | 0.359
NLNGKYFKPRA [ANGPTL3_Y417_N418Y_YF] | 1.16 | 0.961 | 1.21 | 0.543 | 0.389 | 0.363 | 0.367 | 0.538 | 0.646 | 0.335 | 0.56 | 0.297 | 0.365 | 0.383 | 0.469 | 0.43
GNFSGYDDAWD [POLR1C_Y36_YF] | 0.592 | 4.46 | 0.832 | 1.28 | 0.48 | 0.428 | 0.461 | 0.574 | 1.14 | 0.454 | 1.43 | 0.479 | 0.568 | 0.731 | 1.03 | 0.584
EFTAGYNVKFD [GPX4_Y123_A120T] | 0.605 | 0.468 | 0.881 | 0.9 | 0.445 | 0.41 | 0.435 | 0.422 | 0.762 | 0.465 | 0.891 | 0.495 | 0.474 | 0.547 | 0.635 | 0.44
IYHLSYIHNCE [PDE6B_Y227_L228I] | 1.27 | 0.819 | 1.35 | 1.18 | 4.22 | 2.65 | 1.81 | 0.783 | 1.3 | 2.78 | 1.38 | 1.67 | 0.724 | 2.16 | 4.3 | 2.65
SVTCTYSSALN [TP53_Y126_P128S] | 0.732 | 0.537 | 0.78 | 0.909 | 0.458 | 0.483 | 0.689 | 0.601 | 1 | 0.6 | 1 | 0.534 | 0.576 | 0.726 | 0.728 | 0.64
LYSDHYSPSGR [TMPRSS12_Y23] | 0.544 | 0.473 | 1.1 | 1.41 | 28.8 | 1.14 | 2.01 | 4.19 | 1.27 | 1.01 | 1.03 | 16.8 | 2.91 | 0.958 | 1.54 | 2.15
SVVVPHEPPEV [TP53_Y220_Y220H] | 0.902 | 0.581 | 0.956 | 0.755 | 0.41 | 0.53 | 0.46 | 0.51 | 0.763 | 0.466 | 0.949 | 0.538 | 0.46 | 0.696 | 0.703 | 0.396
KLFFHYNPKLC [INSR_Y457] | 1.18 | 0.712 | 1.12 | 1.47 | 0.383 | 0.534 | 0.562 | 0.631 | 1.25 | 0.384 | 1.41 | 0.566 | 0.568 | 0.777 | 0.855 | 0.428
AKIDGYITSFR | 0.936 | 0.625 | 1.02 | 0.535 | 0.468 | 0.513 | 0.381 | 0.427 | 0.795 | 0.439 | 0.957 | 0.468 | 0.411 | 0.573 | 0.573 | 0.407
GKSDPYHATSG [GJA1_Y247] | 0.588 | 0.518 | 0.761 | 0.519 | 0.354 | 0.346 | 0.365 | 0.355 | 0.426 | 0.386 | 0.508 | 0.381 | 0.349 | 0.402 | 0.527 | 0.404
